In patent US20220056104A1 (Janssen / Centocor, published 2022):

T1: Recombinant DR3-Fc (R&D Systems, cat. #943-D3) (UniProt Q93038 25-199, limits assumed)
T1 construct: dimeric MW~92 kDa; also called DR3 receptor; Fc-DR3; not shown: Fc part of the bought fusion
T1 sequence (looked up): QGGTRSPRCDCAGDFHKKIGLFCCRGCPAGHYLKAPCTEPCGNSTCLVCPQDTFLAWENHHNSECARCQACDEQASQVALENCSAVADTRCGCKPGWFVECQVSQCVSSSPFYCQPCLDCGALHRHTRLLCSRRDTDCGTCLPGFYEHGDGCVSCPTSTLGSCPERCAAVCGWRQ

T2: DcR3 (UniProt O95407 30-300, limits assumed)
T2 construct: the construct is not described; also called decoy receptor DcR3; TNFRSF6B
T2 sequence (looked up): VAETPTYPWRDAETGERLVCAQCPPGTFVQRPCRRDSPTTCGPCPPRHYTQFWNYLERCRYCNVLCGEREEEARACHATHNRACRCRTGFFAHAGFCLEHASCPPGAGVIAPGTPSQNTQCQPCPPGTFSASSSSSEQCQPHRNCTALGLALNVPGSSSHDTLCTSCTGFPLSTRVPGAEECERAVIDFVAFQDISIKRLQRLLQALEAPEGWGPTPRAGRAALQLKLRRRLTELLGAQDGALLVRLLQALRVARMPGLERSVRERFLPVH


Tests used:
[1] = target: T1, Recombinant DR3-Fc (R&D Systems, cat. …); assay: ELISA, DR3-Fc immobilized
Description: All ELISA-based measurements were collected in triplicate, and error values report the standard error between measurements. Recombinant DR3-Fc (R&D Systems, cat. #943-D3), dimeric MW˜92 kDa, was non-specifically immobilized onto plates (Nunc maxisorp, cat. #436110) in 100 μL DR3-Fc, diluted to 10 μg/mL onto a 96-well White Maxisorp plate (Nunc, cat #436110) (O/N, 4° C.). Plates were block for 1 hour at room temperature with 250 μl/well of casein buffer and blocking buffer was removed. 50 μL of TL1A variants were diluted in StartingBlock PBS (Thermo Fisher Scientific), at 25 μg/mL, diluting 3× over each well, according to the plate map description for 20160623) per well on a 96-well White Maxisorp plate (Nunc, cat #: 436110) (overnight at 4° C.).
Plates were washed three times with TBST. 100 μl/well polyclonal rabbit anti-human TL1A-biotin antibody (diluted 1:1000 in Starting Block PBS) was added and plates were incubated for 1 hour at room temperature with shaking at 150 rpm. TL1A-biotin antibody was removed and 100 μl/well streptavidin-HRP conjugate (diluted 1:10,000 in Starting Block PBS) was added to plates. Plates were incubated for 1 hour at room temperature with shaking at 150 rpm. Plates were washed three times with TBST. 100 μl/well POD Chemiluminescence substrate (Roche, cat #: 11582950001) was added immediately prior to reading plate luminescence using a Molecular Devices M5 plate reader with a delay setting of 100 ms.
Variants of TL1A were generated and tested for binding to DR3 and DcR3 by ELISA as described.

DcR3 = target: T2, DcR3; assay: ELISA, DcR3

| Binder | EC50 [1] | Rel EC50 [1] | EC50 (DcR3) | Rel EC50 (DcR3) |
| --- | --- | --- | --- | --- |
| TL1W78 (His-TEV-TL1A R103H) (ligand, also called TL1W78 (R103H)) HHHHHHENLYFQGLKGQEFAPSHQQVYAPLRADGDKPRAHLTVVHQTPTQHFKNQFPALHWEHELGLAFTKNRMNYTNKFLLIPESGDYFIYSQVTFRGMTSECSEIRQAGRPNKPDSITVVITKVTDSYPEPTQLLMGTKSVCEVGSNWFQPIYLGAMFSLQEGDKLMVNVSDISLVDYTKEDKTFFGAFLL | 77.2 nM | 2.9 ratio (head: nM) | 8.1 nM | 1.8 ratio (head: nM) |
| TL1W85 (His-TEV-TL1A G124S) (ligand, also called TL1W85 (G124S)) HHHHHHENLYFQGLKGQEFAPSHQQVYAPLRADGDKPRAHLTVVRQTPTQHFKNQFPALHWEHELSLAFTKNRMNYTNKFLLIPESGDYFIYSQVTFRGMTSECSEIRQAGRPNKPDSITVVITKVTDSYPEPTQLLMGTKSVCEVGSNWFQPIYLGAMFSLQEGDKLMVNVSDISLVDYTKEDKTFFGAFLL | 296 nM | 11.3 ratio (head: nM) | 57.1 nM | 12.4 ratio (head: nM) |
| TL1W79 (His-TEV-TL1A R103E) (ligand, also called TL1W79 (R103E)) HHHHHHENLYFQGLKGQEFAPSHQQVYAPLRADGDKPRAHLTVVEQTPTQHFKNQFPALHWEHELGLAFTKNRMNYTNKFLLIPESGDYFIYSQVTFRGMTSECSEIRQAGRPNKPDSITVVITKVTDSYPEPTQLLMGTKSVCEVGSNWFQPIYLGAMFSLQEGDKLMVNVSDISLVDYTKEDKTFFGAFLL | 204 nM | 7.8 ratio (head: nM) | 7.1 nM | 1.5 ratio (head: nM) |
| TL1W94 (His-TEV-TL1A M158E) (ligand, also called TL1W94 (M158E)) HHHHHHENLYFQGLKGQEFAPSHQQVYAPLRADGDKPRAHLTVVRQTPTQHFKNQFPALHWEHELGLAFTKNRMNYTNKFLLIPESGDYFIYSQVTFRGETSECSEIRQAGRPNKPDSITVVITKVTDSYPEPTQLLMGTKSVCEVGSNWFQPIYLGAMFSLQEGDKLMVNVSDISLVDYTKEDKTFFGAFLL | 58.7 nM | 2.2 ratio (head: nM) | 18.7 nM | 4.1 ratio (head: nM) |
| TL1W97 (His-TEV-TL1A K173S) (ligand, also called TL1W97 (K173S)) HHHHHHENLYFQGLKGQEFAPSHQQVYAPLRADGDKPRAHLTVVRQTPTQHFKNQFPALHWEHELGLAFTKNRMNYTNKFLLIPESGDYFIYSQVTFRGMTSECSEIRQAGRPNSPDSITVVITKVTDSYPEPTQLLMGTKSVCEVGSNWFQPIYLGAMFSLQEGDKLMVNVSDISLVDYTKEDKTFFGAFLL | 131 nM | 5 ratio (head: nM) | 6.7 nM | 1.5 ratio (head: nM) |
| TL1W81 (His-TEV-TL1A K111S) (ligand, also called TL1W81 (K111S)) HHHHHHENLYFQGLKGQEFAPSHQQVYAPLRADGDKPRAHLTVVRQTPTQHFSNQFPALHWEHELGLAFTKNRMNYTNKFLLIPESGDYFIYSQVTFRGMTSECSEIRQAGRPNKPDSITVVITKVTDSYPEPTQLLMGTKSVCEVGSNWFQPIYLGAMFSLQEGDKLMVNVSDISLVDYTKEDKTFFGAFLL | 34.4 nM | 1.3 ratio (head: nM) | 50.9 nM | 11.1 ratio (head: nM) |
| TL1W100 (His-TEV-TL1A S176L) (ligand, also called TL1W100 (S176L)) HHHHHHENLYFQGLKGQEFAPSHQQVYAPLRADGDKPRAHLTVVRQTPTQHFKNQFPALHWEHELGLAFTKNRMNYTNKFLLIPESGDYFIYSQVTFRGMTSECSEIRQAGRPNKPDLITVVITKVTDSYPEPTQLLMGTKSVCEVGSNWFQPIYLGAMFSLQEGDKLMVNVSDISLVDYTKEDKTFFGAFLL | 324 nM | 12.4 ratio (head: nM) | 15 nM | 3.3 ratio (head: nM) |
| TL1W93 (His-TEV-TL1A M158K) (ligand, also called TL1W93 (M158K)) HHHHHHENLYFQGLKGQEFAPSHQQVYAPLRADGDKPRAHLTVVRQTPTQHFKNQFPALHWEHELGLAFTKNRMNYTNKFLLIPESGDYFIYSQVTFRGKTSECSEIRQAGRPNKPDSITVVITKVTDSYPEPTQLLMGTKSVCEVGSNWFQPIYLGAMFSLQEGDKLMVNVSDISLVDYTKEDKTFFGAFLL | 22.5 nM | 0.9 ratio (head: nM) | 55.9 nM | 12.1 ratio (head: nM) |
| TL1W84 (His-TEV-TL1A E120H) (ligand, also called TL1W84 (E120H)) HHHHHHENLYFQGLKGQEFAPSHQQVYAPLRADGDKPRAHLTVVRQTPTQHFKNQFPALHWHHELGLAFTKNRMNYTNKFLLIPESGDYFIYSQVTFRGMTSECSEIRQAGRPNKPDSITVVITKVTDSYPEPTQLLMGTKSVCEVGSNWFQPIYLGAMFSLQEGDKLMVNVSDISLVDYTKEDKTFFGAFLL | 182 nM | 7 ratio (head: nM) | 55.7 nM | 12.1 ratio (head: nM) |
| TL1W99 (His-TEV-TL1A S176A) (ligand, also called TL1W99 (S176A)) HHHHHHENLYFQGLKGQEFAPSHQQVYAPLRADGDKPRAHLTVVRQTPTQHFKNQFPALHWEHELGLAFTKNRMNYTNKFLLIPESGDYFIYSQVTFRGMTSECSEIRQAGRPNKPDAITVVITKVTDSYPEPTQLLMGTKSVCEVGSNWFQPIYLGAMFSLQEGDKLMVNVSDISLVDYTKEDKTFFGAFLL | 34.8 nM | 1.3 ratio (head: nM) | 11.5 nM | 2.5 ratio (head: nM) |
| TL1W102 (His-TEV-TL1A S176K) (ligand, also called TL1W102 (S176K)) HHHHHHENLYFQGLKGQEFAPSHQQVYAPLRADGDKPRAHLTVVRQTPTQHFKNQFPALHWEHELGLAFTKNRMNYTNKFLLIPESGDYFIYSQVTFRGMTSECSEIRQAGRPNKPDKITVVITKVTDSYPEPTQLLMGTKSVCEVGSNWFQPIYLGAMFSLQEGDKLMVNVSDISLVDYTKEDKTFFGAFLL | 182 nM | 6.9 ratio (head: nM) | 29.2 nM | 6.3 ratio (head: nM) |
| TL1W82 (His-TEV-TL1A K111E) (ligand, also called TL1W82 (K111E)) HHHHHHENLYFQGLKGQEFAPSHQQVYAPLRADGDKPRAHLTVVRQTPTQHFENQFPALHWEHELGLAFTKNRMNYTNKFLLIPESGDYFIYSQVTFRGMTSECSEIRQAGRPNKPDSITVVITKVTDSYPEPTQLLMGTKSVCEVGSNWFQPIYLGAMFSLQEGDKLMVNVSDISLVDYTKEDKTFFGAFLL | 25.8 nM | 1 ratio (head: nM) | 10.6 nM | 2.3 ratio (head: nM) |
| TL1W90 (His-TEV-TL1A R156K) (ligand, also called TL1W90 (R156K)) HHHHHHENLYFQGLKGQEFAPSHQQVYAPLRADGDKPRAHLTVVRQTPTQHFKNQFPALHWEHELGLAFTKNRMNYTNKFLLIPESGDYFIYSQVTFKGMTSECSEIRQAGRPNKPDSITVVITKVTDSYPEPTQLLMGTKSVCEVGSNWFQPIYLGAMFSLQEGDKLMVNVSDISLVDYTKEDKTFFGAFLL | 188 nM | 7.2 ratio (head: nM) | 11 nM | 2.4 ratio (head: nM) |
| TL1W98 (His-TEV-TL1A K173R) (ligand, also called TL1W98 (K173R)) HHHHHHENLYFQGLKGQEFAPSHQQVYAPLRADGDKPRAHLTVVRQTPTQHFKNQFPALHWEHELGLAFTKNRMNYTNKFLLIPESGDYFIYSQVTFRGMTSECSEIRQAGRPNRPDSITVVITKVTDSYPEPTQLLMGTKSVCEVGSNWFQPIYLGAMFSLQEGDKLMVNVSDISLVDYTKEDKTFFGAFLL | 2050 nM | 78.4 ratio (head: nM) | 27.8 nM | 6 ratio (head: nM) |
| TL1W96 (His-TEV-TL1A R170E) (ligand, also called TL1W96 (R170E)) HHHHHHENLYFQGLKGQEFAPSHQQVYAPLRADGDKPRAHLTVVRQTPTQHFKNQFPALHWEHELGLAFTKNRMNYTNKFLLIPESGDYFIYSQVTFRGMTSECSEIRQAGEPNKPDSITVVITKVTDSYPEPTQLLMGTKSVCEVGSNWFQPIYLGAMFSLQEGDKLMVNVSDISLVDYTKEDKTFFGAFLL | 87 nM | 3.3 ratio (head: nM) | 16.4 nM | 3.6 ratio (head: nM) |
